Results on 4 variants are retold here after article PMC12511343, “Structural insights into Cir-mediated killing by the antimicrobial protein Microcin V” (Communications Biology, 2025).

B1: 4-Met substituted E. coli Cir (colicin Ia receptor), the paper's wildtype (WT) Cir [E. coli] / Microcin V (MccV), mature, wildtype [modified: biotinylated (EZ-Link Sulfo-NHS-LC kit) for BLI and ELISA; not labelled for … (parent)
chain 1: VDDDGETMVVTASSVEQNLKDAPASISVITQEDLQRKPVQNLKDVLKEVPGVQLTNEGDNRKGVSIRGLDSSYTLILVDGKRVNSRNAVFRHNDFDLNWIPVDSIERIEVVRGPMSSLYGSDALGGVVNIITKKIGQKWSGTVTVDTTIQEHRDRGDTYNGQFFTSGPLIDGVLGMKAYGSLAKREKDDPQNSTTTDTGETPRIEGFSSRDGNVEFAWTPNQNHDFTAGYGFDRQDRDSDSLDKNRLERQNYSVSHNGRWDYGTSELKYYGEKVENKNPGNSSPITSESNTVDGKYTLPLTAINQFLTVGGEMRHDKMSDAVNLTGGTSSKTSASQYALFVEDEWRIFEPLALTTGVRMDDHETYGEHWSPRAYLVYNATDTVTVKGGWATAFKAPSLLQLSPDWTSNSCRGACKIVGSPDLKPETSESWELGLYYMGEEGWLEGVESSVTVFRNDVKDRISISRTSDVNAAPGYQNFVGFETGANGRRIPVFSYYNVNKARIQGVETELKIPFNDEWKLSINYTYNDGRDVSNGENKPLSDLPFHTANGTLDWKPLALEDWSMYMSGHYTGQKRADSATAKTPGGYTIWNTGAAWQVTKDVKLRAGVLNLGDKDLSRDDYSYNEDGRRYFMAVDYRF
chain 2: ASGRDIAMAIGTLSGQFVAGGIGAAAGGVAGGAIYDYASTHKPNPAMSPSGLGGTIKQKPEGIPSEAWNYAAGRLCNWSPNNLSDVCL

In this test the parent is B1. Nature of the test: BLI. The following applies: for Kd: 100 nM biotinylated MccV loaded onto streptavidin-coated sensors, probed with dilutions of Cir, PBS-T; for response: raw shift at end of association (600 s), 100 nM biotinylated MccV on sensor, not baseline-subtracted, read off a plot.
Where [1] appears, read: with 4-Met substituted E. coli Cir (colicin Ia receptor).

chain 1 R411E R465E: the Kd – broadly, a measure of binding affinity in units of concentration – (with Microcin V (MccV)) turned out to be 1580 nM.

With chain 2 ASGRDIAMAIGTLSGQFVAGGIGAAAGGVAGGAIYDYASTHKPNPAMSPSGLGGTIKQKPEGIPSEAWNYAAGRLCNWSPNNLSRVCL [chain 2 D85R], the Kd under setting [1] came out at 692 nM. Moreover, the response (with 4-Met substituted E. coli Cir (colicin Ia receptor), 5 µM WT Cir, PBST trace at about 1.85 nm) was 3.2 nm.

As to chain 2 ASGRDIAMAIGTLSGQFVAGGIGAAAGGVAGGAIYDYASTHKPNPAMSPSGLGGTIKQKPEGIPSEAWNYAAGRLCNWSPNNLSAVCL [chain 2 D85A], the Kd under setting [1] was found to be 888 nM. For the same variant, the response (with 4-Met substituted E. coli Cir (colicin Ia receptor), 5 µM WT Cir, PBST trace at about 1.65 nm) was found to be 3.3 nm.

Take chain 1 C410A: the dissociation constant (Kd) (with Microcin V (MccV)) was 552 nM. The response (with Microcin V (MccV), 5 µM Cir, PBST trace at about 1.5 nm) was 4.5 nm.
